Literature values, collected in PMC3408481.

Key:
VIP (Homo sapiens) = VIP (Homo sapiens) (UniProt P01282)
PACAP (Homo sapiens) = PACAP (Homo sapiens) (UniProt P18509)
UniProt P18509, sequence (P18509 82-129): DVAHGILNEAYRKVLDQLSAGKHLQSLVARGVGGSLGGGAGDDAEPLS

UniProt P01282, sequence (P01282 125-152): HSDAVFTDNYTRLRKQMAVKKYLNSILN

- Kd (VIP (Homo sapiens)): 500 nM
- Kd (PACAP (Homo sapiens)): 0.5 nM
Substance: PAC1 receptor (from UniProt P41586)
